Assay results published in the RNAGym collection of RNA variant scans (doi:10.7554/elife.80360).

B1: Hairpin Ribozyme (parent)
chain: GUCCUCUUUCACGUGCGCGUGAAAGAGAGAAGUGAACCAGAGAAACACACGUUGUGGUAUAUUACCUGGUA

Variants of: B1
Assay: self-cleavage, relative activity (ratio to wild type); higher = more cleavage; co-transcriptional
Variant A24C U52G has a self-cleavage of 1.08.
For G32U A47G, the self-cleavage was 0.0761.
With C12G C38G the self-cleavage was 0.142.
For C4G A23C, the self-cleavage was 0.233.
Work on U55A C65G yielded a self-cleavage of 0.19.
A11G A39G gave a self-cleavage of 0.323.
Variant G34A C37G has a self-cleavage of 0.519.
For U9A G51A, the self-cleavage was 0.688.
U20C U55A showed a self-cleavage of 0.407.
G17A A59G showed a self-cleavage of 0.205.
With U7G C46G the self-cleavage was 0.134.
A35G A47C gave a self-cleavage of 0.312.
With A44U U67G the self-cleavage was 0.102.
Variant G32U U67A has a self-cleavage of 0.171.
A23C A61C gave a self-cleavage of 0.143.
Work on U53A U62G yielded a self-cleavage of 0.146.
For A30G C66U, the self-cleavage was 0.1.
G34A A41G showed a self-cleavage of 1.3.
U7A G69U gave a self-cleavage of 0.271.
A23U A49U showed a self-cleavage of 0.193.
U8C G17U gave a self-cleavage of 0.554.
With G1A U58G the self-cleavage was 0.256.
Variant A30C U70C has a self-cleavage of 0.127.
G1U A22U showed a self-cleavage of 0.119.
In the case of A47G U62G, the self-cleavage is reported as 0.0586.
With U8G A45G the self-cleavage was 0.125.
Work on U14G U55C yielded a self-cleavage of 0.286.
With G32U C46G the self-cleavage was 0.14.
In the case of A43C U70G, the self-cleavage is reported as 0.12.
For C6A C66U, the self-cleavage was 0.247.
Work on U20G A26C yielded a self-cleavage of 0.483.
In the case of C10U A59U, the self-cleavage is reported as 0.124.
In the case of U8G C38U, the self-cleavage is reported as 0.548.
Work on G34A A45G yielded a self-cleavage of 0.435.
A26G G34C gave a self-cleavage of 1.01.
Variant C16U U53A has a self-cleavage of 1.23.
U53G A71U gave a self-cleavage of 0.635.
A30U G51C showed a self-cleavage of 0.164.
In the case of U2G A44U, the self-cleavage is reported as 0.0754.
With U62G U63G the self-cleavage was 0.191.
Work on A39U U70G yielded a self-cleavage of 0.333.
U5A G25C gave a self-cleavage of 0.162.
Work on A35C A47G yielded a self-cleavage of 0.195.
Variant G21U A35C has a self-cleavage of 0.841.
C16G G29U showed a self-cleavage of 0.0825.
C16U G54C gave a self-cleavage of 0.411.
Variant G34C A43C has a self-cleavage of 0.144.
A31G C65A showed a self-cleavage of 0.891.
Work on A44U G56U yielded a self-cleavage of 0.231.
Variant G34A U60A has a self-cleavage of 1.13.
For G34A U60C, the self-cleavage was 1.5.
In the case of C37A A49C, the self-cleavage is reported as 0.0162.
Variant C48G C66A has a self-cleavage of 0.131.
In the case of U5C U20G, the self-cleavage is reported as 0.508.
A35C G69C gave a self-cleavage of 0.126.
In the case of C48U, the self-cleavage is reported as 0.158.
For G17C A24G, the self-cleavage was 0.88.
A22C U70G showed a self-cleavage of 0.763.
Variant G29C U70C has a self-cleavage of 0.133.
Work on A44U A45G yielded a self-cleavage of 0.102.
Variant U2A A31U has a self-cleavage of 0.163.
With A31U U53C the self-cleavage was 0.133.
For U62C G68C, the self-cleavage was 0.223.
A39G A41G showed a self-cleavage of 0.619.
G21A C38U gave a self-cleavage of 0.466.
For G34C G51U, the self-cleavage was 1.4.
With G15U G29U the self-cleavage was 0.124.
U7G G56A gave a self-cleavage of 0.151.
C12A A28G showed a self-cleavage of 0.836.
Work on A35G A44G yielded a self-cleavage of 0.177.
In the case of A24G G51U, the self-cleavage is reported as 0.881.
Work on G1U A59U yielded a self-cleavage of 0.195.
With A28C C48A the self-cleavage was 0.122.
A36U A49C showed a self-cleavage of 0.214.
For G51U U58C, the self-cleavage was 0.982.
Work on G17A G69C yielded a self-cleavage of 0.249.
In the case of C18U U55A, the self-cleavage is reported as 0.128.
U5A G51C showed a self-cleavage of 0.324.
For A23U A71C, the self-cleavage was 1.28.
In the case of A30G A35U, the self-cleavage is reported as 0.0439.
For U9G A39G, the self-cleavage was 0.206.
In the case of C12U A64G, the self-cleavage is reported as 0.564.
With G42A A71U the self-cleavage was 0.159.
With U7C U9A the self-cleavage was 0.607.
In the case of G21U A36G, the self-cleavage is reported as 1.07.
G1U A64G gave a self-cleavage of 0.0823.
In the case of A30C C38U, the self-cleavage is reported as 0.209.
In the case of G42C A61U, the self-cleavage is reported as 0.136.
In the case of A26G U63A, the self-cleavage is reported as 0.101.
In the case of G42U A49C, the self-cleavage is reported as 0.173.
Variant G13U G17C has a self-cleavage of 0.494.
In the case of G25C G68U, the self-cleavage is reported as 0.206.
G25C C66A showed a self-cleavage of 0.133.
Work on C38G G69C yielded a self-cleavage of 0.241.
Work on U55G G69C yielded a self-cleavage of 0.257.
G21C C50G showed a self-cleavage of 0.278.
Work on U58A C66A yielded a self-cleavage of 0.18.
Variant U8A U14C has a self-cleavage of 0.845.
Variant U7A U52G has a self-cleavage of 0.733.
Work on G21C A22U yielded a self-cleavage of 0.715.
Variant C3A U14C has a self-cleavage of 0.677.
For U9A U55C, the self-cleavage was 0.179.
In the case of G29U C66A, the self-cleavage is reported as 0.205.
C37G A49G showed a self-cleavage of 0.18.
C4A G15U showed a self-cleavage of 0.182.
In the case of U7A A35C, the self-cleavage is reported as 1.28.
U53G G69U showed a self-cleavage of 0.279.
Work on C6A A44G yielded a self-cleavage of 0.113.
For G19C G54U, the self-cleavage was 0.626.
With A28G U58G the self-cleavage was 0.91.
A11U A28G showed a self-cleavage of 0.929.
Variant G42C U55A has a self-cleavage of 0.169.
Variant U5G G15C has a self-cleavage of 0.249.
For C37A A41G, the self-cleavage was 0.339.
With A39G A47G the self-cleavage was 0.116.
Variant U7A A45C has a self-cleavage of 0.232.
In the case of U2A A11C, the self-cleavage is reported as 0.288.
Work on G32U C38G yielded a self-cleavage of 0.125.
A30G G34C showed a self-cleavage of 0.79.
With A30G U62A the self-cleavage was 0.0629.
For A22U G34A, the self-cleavage was 1.24.
In the case of C50G A59G, the self-cleavage is reported as 0.211.
U5C U62C showed a self-cleavage of 0.0289.
Work on A30G C38G yielded a self-cleavage of 0.149.
Work on C3G U55A yielded a self-cleavage of 0.0814.
G17A C65A gave a self-cleavage of 0.86.
Work on C3G G19U yielded a self-cleavage of 0.26.
For C16G C46G, the self-cleavage was 0.183.
A35U U63A gave a self-cleavage of 0.227.
C18G A61U showed a self-cleavage of 0.247.
Variant C18A G27A has a self-cleavage of 0.534.
For C38G U58A, the self-cleavage was 0.139.
Variant A45C C65U has a self-cleavage of 0.102.
Variant G32A G42A has a self-cleavage of 0.0757.
A22U A71C gave a self-cleavage of 1.37.
A47G G57C gave a self-cleavage of 0.159.
For G21A A47G, the self-cleavage was 0.2.
C38U C65A showed a self-cleavage of 0.453.
In the case of A22C A45U, the self-cleavage is reported as 0.108.
U8A C65G showed a self-cleavage of 0.104.
C48G C65A showed a self-cleavage of 0.22.
G19C G29A showed a self-cleavage of 0.112.
With G15U A47C the self-cleavage was 0.324.
Variant A47G G54A has a self-cleavage of 0.177.
For C37G G54U, the self-cleavage was 0.255.
For U52A G68U, the self-cleavage was 0.309.
Work on U9G C18G yielded a self-cleavage of 0.801.
G34U A59U gave a self-cleavage of 0.192.
In the case of A23G U63G, the self-cleavage is reported as 0.338.
C3U A11G gave a self-cleavage of 0.338.
C3U A11C gave a self-cleavage of 0.402.
For C12G G29A, the self-cleavage was 0.138.
For U5A A28G, the self-cleavage was 0.471.
With G19A U60A the self-cleavage was 0.658.
With A49C U62G the self-cleavage was 0.225.
Work on A41U U52A yielded a self-cleavage of 1.23.
Variant G13U C65A has a self-cleavage of 0.845.
Variant C37G U67G has a self-cleavage of 0.132.
C16G U53A showed a self-cleavage of 0.855.
Variant U33G A59G has a self-cleavage of 0.204.
For U33G A59U, the self-cleavage was 0.
U33C U58A gave a self-cleavage of 0.0907.
Variant C16U A44U has a self-cleavage of 0.154.
In the case of U60C A61G, the self-cleavage is reported as 0.228.
Variant A30G U67A has a self-cleavage of 0.215.
In the case of A39C C66G, the self-cleavage is reported as 0.0809.
U63G U67C showed a self-cleavage of 0.149.
